# Laboratory results: FireProtDB (doi:10.1021/bi972394l)
# “And” between values parts separate entries of the source, which are not always exact repeats. Equal values may be shown once.
# Conditions: Homo sapiens; pH 7.8; Thermal; DSC; potassium phosphate 2 mM; transition: 2; reversible: Yes; whole UniProt chain shown
protein,measurement,value
"Superoxide dismutase [Mn], mitochondrial wild type, P04179 (protein) MLSRAVCGTSRQLAPVLGYLGSRQKHSLPDLPYDYGALEPHINAQIMQLHHSKHHAAYVNNLNVTEEKYQEALAKGDVTAQIALQPALKFNGGGHINHSIFWTNLSPNGGGEPKGELLEAIKRDFGSFDKFKEKLTAASVGVQGSGWGWLGFNKERGHLQIAACPNQDPLQGTTGLIPLLGIDVWEHAYYLQYKNVRPDYLKAIWNVINWENVTERYMACKK",unfolding enthalpy (calorimetric),142 kcal/mol and 90.6 kcal/mol
